From patent US12533409B2, “Compositions and methods for targeting mutant RAS” (The Trustees of the University of Pennsylvania, priority 2019, dated 2026) come the findings set out here.

Assay [1] deals with T1, HLA-A*03:01 (Homo sapiens, UniProt P04439). Description: Competitive peptide binding fluorescence polarization assay. The settings on record: peptide-MHC binding; strong binding affinity indicated by log[IC50]<3.7 (FIG. 6A). As to the method: (§1) Experiments were also conducted to examine peptide-MHC binding.
The target of assay [2] is T2, HLA-A*11:01 (Homo sapiens, UniProt P04439, A114D/D185E/E176A/F33Y/L180Q/S129P/T187R). The description is as above. The settings on record: peptide-MHC binding; strong binding affinity indicated by log[IC50]<3.7 (FIG. 6A). As to the method: as §1
The target in assay [3] is T1, HLA-A*03:01. The assay can be described thus: HLA class I immunoprecipitation peptide elution and tandem Mass Spec (MS/MS), monoallelic K562 RAS TMG cell lines. In kind it is cell-based. Set-up: expressed in transfected cells; host or cells: K562, lentiviral HLA construct plus RAS tandem minigene construct. As to conditions: A*03:01-restricted; antigen processing/presentation. The text has this: (§2) Additional antigen processing and presentation studies were done using mass spectrometry. First, monoallelic K562 cell lines were created to express specific HLA types (FIG. 7A). Further, lentiviral constructs expressing various wt RAS and mRAS peptides were generated (FIG. 7E). Monoallelic cell lines that express specific HLA types and the various RAS and mRAS peptides were then created. The expression of HLA class I and HLA-specific expression of RAS TMG cells lines were verified by FACS (FIG. 7C and FIG. 7D).
(§3) Further, novel epitopes are identified for HLA-B*07:02.

The target in assay [4] is T2, HLA-A*11:01. Described as above. In kind it is cell-based. Also on record: expressed in transfected cells; host or cells: K562, lentiviral HLA construct plus RAS tandem minigene construct. As to conditions: A*11:01-restricted; antigen processing/presentation.
Source text: as §2, §3

For assay [5], the target named is HLA-B*07:02 (Homo sapiens, UniProt P01889). The description is as above. In kind it is cell-based. The settings on record: B*07:02-restricted; antigen processing/presentation. Set-up: expressed in transfected cells; host or cells: K562, lentiviral HLA construct plus RAS tandem minigene construct.
Source text: as §2, §3

For assay [6], the system named is wildtype RAS epitope. The assay can be described thus: Jurkat Reporter assay of TCR specificity and cross-reactivity. In kind it is cell-based. As to conditions: Jurkat Reporter cells; HLA-B*07:02-restricted TCR. As to the method: The validation of TCR831 expression by peptide-MHC multimer staining of lentiviral-transduced Jurkat Reporter cells is shown in FIG. 25A. Experiments were conducted to examine TCR831 avidity by Jurkat Reporter cells (FIG. 25B). Experiments were also conducted to assess TCR831 specificity and cross-reactivity to alternative mutant RAS epitopes by Jurkat Reporter assay. […] depicts TCR activation of Jurkat Reporter cells following coculture with A*11:01 positive RAS G12V tumor cell lines. FIG. 25E depicts the expression of TCR831 on primary CD8+ T cells. […] Cell line coloring corresponds to that in FIG. 25D.
Experiments were also conducted to further characterize the expression and function of TCR833. The validation of TCR833 expression by peptide-MHC multimer staining of lentiviral-transduced Jurkat Reporter cells is shown in FIG. 26A. FIG. 26B depicts the results of experiments assessing TCR833 avidity by Jurkat Reporter cells. Experiments were also conducted to assess TCR833 specificity and cross-reactivity to alternative mutant RAS epitopes by Jurkat Reporter assay. […] FIG. 26D depicts TCR833 activation of Jurkat Reporter cells following coculture with A*11:01 positive RAS G12V tumor cell lines.
Further experiments were conducted to characterize TCR897 expression and function. TCR897 expression was validated by peptide-MHC multimer staining of lentiviral-transduced Jurkat Reporter cells, as shown in FIG. 27A. FIG. 27B depicts the results of experiments assessing TCR897 avidity by Jurkat Reporter cells. Experiments were conducted to assess TCR897 specificity and cross-reactivity to alternative mutant RAS epitopes by Jurkat Reporter assay.
(§4) Further experiments were conducted to characterize TCR896 expression and function. TCR896 expression was validated by peptide-MHC multimer staining of lentiviral-transduced Jurkat Reporter cells, as shown in FIG. 28A. FIG. 28B depicts the results of experiments assessing TCR896 avidity by Jurkat Reporter cells. Experiments were conducted assessing TCR specificity and cross-reactivity to alternative mutant RAS epitopes by Jurkat Reporter assay. […] FIG. 28D depicts TCR activation of Jurkat Reporter cells following coculture with A*03:01 positive RAS G12V tumor cell lines.
(§5) Further experiments were done to characterize TCR847 expression and function. TCR847 expression was validated by peptide-MHC multimer staining of lentiviral-transduced Jurkat Reporter cells, as shown in FIG. 29A. FIG. 29B depicts the results of experiments assessing TCR specificity and cross-reactivity to alternative mutant RAS epitopes by Jurkat Reporter assay.
(§6) Further experiments were conducted to characterize TCR864 expression and function. TCR864 expression was validated by peptide-MHC multimer staining of lentiviral-transduced Jurkat Reporter cells, as shown in FIG. 30A. FIG. 30B depicts the results of experiments assessing TCR864 avidity by Jurkat Reporter cells. Experiments were conducted to examine TCR864 specificity and cross-reactivity to alternative mutant RAS epitopes by Jurkat Reporter assay. […] The expression of TCR864 on primary CD8+ T cells is depicted in FIG. 30D.

The target in assay [7] is RAS G12R (GA_R) (Homo sapiens, UniProt P01116+P01889, G12R). Described as above. As to conditions: Jurkat Reporter cells. Format: cell-based. As to the method:
as §5, §6

The test system of assay [8] is alternatively mutated RAS epitopes. Described as above. Format: cell-based. The settings on record: Jurkat Reporter cells; HLA-B*07:02-restricted TCR. As to the method:
as §4, §5, §6

As to “VVVGARGVGK (VVV_R) [mRAS peptide, G12R, HLA-A*03:01 and HLA-A*11:01]”, in assay [1], the “binding affinity of mRAS neoepitope for HLA-A*03:01” value was “high binding affinity”. Also, the “binding affinity of mRAS neoepitope for HLA-A*11:01” value (from here on “binding affinity … for HLA-A*11:01”) in assay [2] is “high binding affinity”.

For the molecule VVGACGVGK [VV_C], the “binding affinity … for HLA-A*11:01” value in assay [2] is “high binding affinity”.

With “VVGARGVGK (VV_R) [mRAS peptide, G12R, HLA-A*03:01 and HLA-A*11:01]”, the “binding affinity … for HLA-A*11:01” value in assay [2] is on record as “high binding affinity”. Further, the “detection of mRAS epitope by HLA class I immunoprecipitation peptide elution and MS/MS” value (shortened to “detection of mRAS epitope”) in assay [3] and in assay [4] was “detection” throughout.

Turning to VVVGADGVGK [VVV_D], in assay [2], the “binding affinity … for HLA-A*11:01” value is on record as “high binding affinity”. The “detection of mRAS epitope” value in assay [3] and in assay [4] was “detection” each time.

For the molecule VVVGAVGVGK [VVV_V], in assay [1], the “binding affinity of mRAS neoepitope for HLA-A*03:01” value is given as “high binding affinity”. In assay [2], the “binding affinity … for HLA-A*11:01” value is recorded as “high binding affinity”. The “detection of mRAS epitope” value in assay [3] and in assay [4] was “detection” throughout.

With VVGADGVGK [VV_D], the “binding affinity … for HLA-A*11:01” value in assay [2] is listed as “high binding affinity”. Besides, the “detection of mRAS epitope” value in assay [4] is “detection”.

Take “GADGVGKSAL (GA_D) [mRAS peptide, G12D, HLA-B*07:02]”: the “detection of mRAS epitope” value in assay [5] is reported as “identified new epitopes”.

B1: TCR847: TCR construct, TRAV17 and TRBV10-3; fusion protein SEQ ID NO: 80; HLA-B*07:02 (protein)
chain: METLLGVSLVILWLQLARVNSQQGEEDPQALSIQEGENATMNCSYKTSINNLQWYRQNSGRGLVHLILIRSNEREKHSGRLRVTLDTSKKSSSLLITASRAADTASYFCATFPNFGNEKLTFGTGTRLTIIPNIQNPDPAVYQLRDSKSSDKSVCLFTDFDSQTNVSQSKDSDVYITDKTVLDMRSMDFKSNSAVAWSNKSDFACANAFNNSIIPEDTFFPSPESSCDVKLVEKSFETDTNLNFQNLSVIGFRILLLKVAGFNLLMTLRLWSSGSGEGRGSLLTCGDVEENPGPMGTRLFFYVALCLLWTGHMDAGITQSPRHKVTETGTPVTLRCHQTENHRYMYWYRQDPGHGLRLIHYSYGVKDTDKGEVSDGYSVSRSKTEDFLLTLESATSSQTSVYFCAISESERYYEQYFGPGTRLTVTEDLKNVFPPEVAVFEPSEAEISHTQKATLVCLATGFYPDHVELSWWVNGKEVHSGVSTDPQPLKEQPALNDSRYCLSSRLRVSATFWQNPRNHFRCQVQFYGLSENDEWTQDRAKPVTQIVSAEAWGRADCGFTSESYQQGVLSATILYEILLGKATLYAVLVSALVLMAMVKRKDSRG
modifications: TCR847 FUSION
notes: TCR construct, TRAV17 and TRBV10-3; HLA-B*07:02
For the molecule B1, the reactivity to wildtype entry in assay [6] is on record as “not wildtype”. Further, in assay [7], the “specificity for RAS G12R (GA_R)” value is listed as “exhibits specificity”. For the same molecule, the “reactivity to alternatively mutated RAS epitopes” value in assay [8] is “not wildtype or alternatively mutated”.
